The text below walks through data of patent US20250282885A1 (VST BIO, published 2025).

For assay [1], the target named is human Sdc2 on Human Umbilical Vein Endothelial Cells (HUVEC) (human, UniProt P34741 19-201). The assay can be described thus: cell-based or functional assay.
The target in assay [2] is T1, human Sdc2 (human, UniProt P34741 19-144, limits assumed).
T1 construct: Antigen of the Octet tandem binning, loaded on biosensors at 100 nM; also called huSdc2; hSdc2
Kind of assay: Kd (human Sdc2), summary table of the mAbs.

Assay [3] has as its target T1, human Sdc2. Kind of assay: Octet tandem binning; saturating Ab f10 19838-10-I12-A. As for the experimental part:
(§1) These studies were performed in a tandem binning assay format with human Sdc2, used as the antigen (concentration of 100 nM). Antigen loaded biosensors were dipped in a saturating solution of antibody (25 μg/ml) for 240 seconds followed by a competing antibody at 5 μg/ml for 180 seconds. […] Since saturation is not possible to achieve saturation with these clones, they are removed in as ligands, but retained in the analyte orientation in the analysis. A table summarizing the results of epitope binning of the 18 antibodies against huSdc2 is illustrated in FIG. 30. Data is normalized, where the raw binding signal from Competing Ab for a given Saturating Ab is divided by binding in the absence a […] (“buffer”). The threshold determining the matrix color is adjustable and dependent upon Ag-Ab binding. […] Table rows are based on similar looking binding profiles. Note that the coloration/cutoff is subjective, yellow color added to represent injections with ambiguous or very weak sandwiching signals. FIG. 31 illustrates a clustergram of the epitope binning studies, which was generated from the normalized binning data by importation into the statistical computing program R (The R Project for Statistical Computing: at r-project.org) and generation of a clustergram with the pvclust package.
In general terms: In BLI a coated tip is dipped into the sample, and binding shifts an interference pattern.

The target of assay [4] is T1, human Sdc2. The assay can be described thus: Octet tandem binning; Buffer in place of a saturating Ab. As for the experimental part:
as §1

Assay [5] has as its target T1, human Sdc2. Kind of assay: Octet tandem binning; saturating Ab f12 19838-6-N03-A. As for the experimental part:
as §1

The target of assay [6] is T1, human Sdc2. Kind of assay: Octet tandem binning; saturating Ab f8 19844-R4M-P2-C02. As for the experimental part:
as §1

For assay [7], the target named is T1, human Sdc2. Kind of assay: Octet tandem binning; saturating Ab m6 19838-20H19-AA (marked non-binding ligand). As for the experimental part: as §1
The target in assay [8] is T1, human Sdc2. Kind of assay: Octet tandem binning; saturating Ab m3 19844-R3-P1-C02 (row boxed, self-self >0.09). As for the experimental part:
as §1

The target in assay [9] is T1, human Sdc2. Kind of assay: Octet tandem binning; saturating Ab m5 19844-R4M-P3-A12 (row boxed, self-self >0.09). As for the experimental part:
as §1

Assay [10] addresses T1, human Sdc2. Kind of assay: Octet tandem binning; saturating Ab m8 19844-R4M-P1-B01 (marked non-binding ligand). As for the experimental part:
as §1

In assay [11] the target is T1, human Sdc2. The assay can be described thus: Octet tandem binning; saturating Ab f5 19844-R4M-P3-E06. As for the experimental part: as §1
Assay [12] addresses T1, human Sdc2. The assay can be described thus: Octet tandem binning; saturating Ab m4 19844-R4M-P1-A10. As for the experimental part:
as §1

Assay [13] deals with T1, human Sdc2. Kind of assay: Octet tandem binning; saturating Ab f4 19844-R3-P3-C11. As for the experimental part: as §1
In assay [14] the target is T1, human Sdc2. The assay can be described thus: Octet tandem binning; saturating Ab m7 19844-R3-P1-E07. As for the experimental part: as §1
Assay [15] deals with T1, human Sdc2. The assay can be described thus: Octet tandem binning; saturating Ab m1 19838-20H19-AB. As for the experimental part: as §1
The target in assay [16] is T1, human Sdc2. The assay can be described thus: Octet tandem binning; saturating Ab f11 19838-20-H19-A. As for the experimental part:
as §1

Assay [17] has as its target T1, human Sdc2. Kind of assay: Octet tandem binning; saturating Ab f6 19844-R3-P3-E09. As for the experimental part: as §1
Assay [18] addresses T1, human Sdc2. The assay can be described thus: Octet tandem binning; saturating Ab f7 19844-R3-P3-A12. As for the experimental part:
as §1

Assay [19] has as its target T1, human Sdc2. Kind of assay: Octet tandem binning; saturating Ab f9 19838-6-E17-A. As for the experimental part: as §1
In assay [20] the target is T1, human Sdc2. The assay can be described thus: Octet tandem binning; saturating Ab m2 19838-8G17-A. As for the experimental part: as §1
The target in assay [21] is T1, human Sdc2. Kind of assay: Octet tandem binning; saturating Ab f3 19838-6N03-A. As for the experimental part: as §1

Broadly, the Kd is the equilibrium constant for the complex coming apart.

human Sdc2 on Human Umbilical Vein Endothelial Cells (HUVEC), sequence (P34741 19-201 limits assumed): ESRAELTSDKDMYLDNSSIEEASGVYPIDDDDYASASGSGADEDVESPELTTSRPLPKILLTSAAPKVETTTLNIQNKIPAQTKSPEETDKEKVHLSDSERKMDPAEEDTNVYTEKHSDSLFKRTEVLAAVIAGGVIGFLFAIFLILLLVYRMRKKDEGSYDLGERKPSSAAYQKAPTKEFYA
T1 sequence (P34741 19-144 limits assumed): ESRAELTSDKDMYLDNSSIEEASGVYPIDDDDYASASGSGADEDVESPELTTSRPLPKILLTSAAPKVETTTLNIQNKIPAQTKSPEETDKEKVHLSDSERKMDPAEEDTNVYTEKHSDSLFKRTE

B1: TP-43327F (antibody, human IgG1, kappa, V domains shown)
VH: QVQLVESGGGVVQPGGSLRLSCAASGFTFNIYAMHWVRQAPGKGLEWVARIGSKSSYYATYYADSVKGRFTISRDNSKNTLYLQMNSLRTEDTAVYYCVSGKGDWGQGTLVTVSS
VL: DVVMTQSPLSLPVTLGQPASISCRSSQSLLAGDGKTYLNWFLQRPGQSPRRLIYLVSKLDSGVPDRFSGSGSGTDFTLKISRVEAEDVGVYYCWQGTHFPWTFGAGTRLEIKR
Take B1: in [1], the “% Inhibition of VEGFA-induced permeability at 24hrs (20ug/ml)” value (“% Inhibition” below) worked out at 100%. In assay [2], this molecule registered a Kd of less than 0.1 nM.

B2: TP-43329F (antibody, human IgG1, kappa, V domains shown)
VH: QVQLVESGGGVVQPGGSLRLSCAASGFTFNIYAMHWVRQAPGKGLEWVARIGSKSSYYATYYADSVKGRFTISRDNSKNTLYLQMNSLRTEDTAVYYCVSGKGDWGQGTLVTVSS
VL: DVVMTQSPLSLPVTLGQPASISCRSSQSLLAGDGKTYLNWFQQRPGQSPRRLIYLVSKLDSGVPDRFSGSGSGTDFTLKISRVEAEDVGVYYCWQGTHFPWTFGAGTRLEIKR
B2: in assay [1], the “% Inhibition” value was found to be 100%. The Kd in [2] turned out to be 0.8 nM.

B3: 6-N03-A (antibody, mouse IgG1, kappa, V domains shown)
VH: EVQLVESGGGLVKPGGSLKLSCEASGITFSNYVMSWVRQTPEKRLEWVATISDGGSYTYYPDNVKGRFTISRDNAKNNLYLQMSHLKSEDTAMYYCVRDRYDYDGRVYAMDYWGQGTSVTVSS
VL: DVVMTQTPLSLPVSLGDQASISCRSSQSLVHSNGDTYLHWYLQKPGQSPKLLIYKVSNRFSGVPDRFSGSGSGTDFTLKITRVEAEDLGVYFCSQSTHVPWTFGGGTKLEIKR
Turning to B3, the “raw competing-Ab binding signal” value in [3] is 0.0887; in assay [4], 0.477; in assay [5] it was 0.0194; in [6], 0.418; in [7] it was 0.487; in assay [8], 0.397. In addition, the “raw competing-Ab binding signal” value is 0.472 in assay [9]; 0.497 in assay [10]; 0.463 in assay [11]; 0.374 in assay [12]; 0.301 in [13]; 0.486 in assay [14]. For the same molecule, the “raw competing-Ab binding signal” value is 0.0812 in [15]; 0.0908 in assay [16]; 0.346 in [17]; 0.179 in assay [18]; 0.422 in assay [19]; -0.0492 in [20]. Further, the “% Inhibition” value in assay [1] worked out at 50%. The molecule also had a Kd in assay [2] of 1.17 nM.

B4: 19838-6-N03-A (antibody, IgG1, V domains shown)
VH: EVQLVESGGGLVKPGGSLKLSCEASGITFSNYVMSWVRQTPEKRLEWVATISDGGSYTYYPDNVKGRFTISRDNAKNNLYLQMSHLKSEDTAMYYCVRDRYDYDGRVYAMDYWGQGTSVTVSS
VL: DVVMTQTPLSLPVSLGDQASISCRSSQSLVHSNGDTYLHWYLQKPGQSPKLLIYKVSNRFSGVPDRFSGSGSGTDFTLKITRVEAEDLGVYFCSQSTHVPWTFGGGTKLEIKR
Regarding B4, the “raw competing-Ab binding signal” value in [3] was found to be 0.0734; in assay [4], 0.413; in assay [6], 0.326; in assay [21], 0.0058; in assay [7], 0.501; in assay [8] it was 0.332. In addition, the “raw competing-Ab binding signal” value in [9] came to 0.435; in [10], 0.388; in [11], 0.463; in assay [12] it was 0.336; in [13], 0.197; in [14], 0.48. The “raw competing-Ab binding signal” value in [15] was 0.0556; in assay [16] it was 0.122; in [17] it was 0.31; in assay [18], 0.162; in [19], 0.378; in assay [20] it was -0.0312.
